This is an account of results in patent publication US10131702B2, “Glucagon-GLP-1-GIP triple agonist compounds” (priority 2013, dated 2018).

Like-named read-outs stand apart in the source and are kept apart here.

What all share (test): cell-based or functional assay
Experiment [1] deals with T1, human GIP receptor (human, UniProt P48546 22-466).
T1 sequence: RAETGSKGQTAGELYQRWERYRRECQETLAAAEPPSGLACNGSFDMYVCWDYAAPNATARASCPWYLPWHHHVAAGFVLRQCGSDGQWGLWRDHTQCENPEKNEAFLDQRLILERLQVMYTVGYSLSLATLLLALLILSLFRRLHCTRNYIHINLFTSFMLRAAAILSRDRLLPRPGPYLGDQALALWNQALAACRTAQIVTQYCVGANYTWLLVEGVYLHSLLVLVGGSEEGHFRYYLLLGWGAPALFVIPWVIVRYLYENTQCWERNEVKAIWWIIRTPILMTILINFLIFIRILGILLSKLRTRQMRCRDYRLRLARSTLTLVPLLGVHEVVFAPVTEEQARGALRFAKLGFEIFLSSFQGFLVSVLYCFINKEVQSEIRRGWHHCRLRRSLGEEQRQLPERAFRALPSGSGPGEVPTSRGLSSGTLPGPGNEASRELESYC

Experiment [2] has as its target T2, human glucagon-like peptide 1 receptor (human, UniProt P43220 24-463).
Experiment [3] has as its target T3, human glucagon receptor (human, UniProt P47871 26-477).
The target of experiment [4] is T1, human GIP receptor. The source holds these as a separate data set.
The target of experiment [5] is T2, human glucagon-like peptide 1 receptor. The source holds these as a separate data set.
Experiment [6] addresses T3, human glucagon receptor. The source holds these as a separate data set.

T3 sequence (P47871 26-477): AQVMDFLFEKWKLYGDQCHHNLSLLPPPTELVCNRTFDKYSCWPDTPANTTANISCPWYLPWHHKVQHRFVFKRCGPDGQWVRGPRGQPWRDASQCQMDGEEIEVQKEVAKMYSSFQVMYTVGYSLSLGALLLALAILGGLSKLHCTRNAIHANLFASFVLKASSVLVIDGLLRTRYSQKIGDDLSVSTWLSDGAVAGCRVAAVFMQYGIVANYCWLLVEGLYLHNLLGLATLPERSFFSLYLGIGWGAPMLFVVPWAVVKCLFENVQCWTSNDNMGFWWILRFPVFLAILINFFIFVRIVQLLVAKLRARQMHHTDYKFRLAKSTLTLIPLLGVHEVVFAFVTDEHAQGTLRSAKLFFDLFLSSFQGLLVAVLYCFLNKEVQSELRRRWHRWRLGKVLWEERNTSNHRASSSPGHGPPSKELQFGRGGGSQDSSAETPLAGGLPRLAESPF

B1: Compound 8 (peptide)
peptide: YAQGTFTSDYSKYLESKAAHDFVEWLLSA
HELM: PEPTIDE1{Y.[Aib].Q.G.T.F.T.S.D.Y.S.K.Y.L.E.S.K.A.A.H.D.F.V.E.W.L.L.S.A.[am]}$$$$V2.0
SMILES: CC(C)C[C@H](NC(=O)[C@H](CC(C)C)NC(=O)[C@H](Cc1c[nH]c2ccccc12)NC(=O)[C@H](CCC(=O)O)NC(=O)[C@@H](NC(=O)[C@H](Cc1ccccc1)NC(=O)[C@H](CC(=O)O)NC(=O)[C@H](Cc1c[nH]cn1)NC(=O)[C@H](C)NC(=O)[C@H](C)NC(=O)[C@H](CCCCN)NC(=O)[C@H](CO)NC(=O)[C@H](CCC(=O)O)NC(=O)[C@H](CC(C)C)NC(=O)[C@H](Cc1ccc(O)cc1)NC(=O)[C@H](CCCCN)NC(=O)[C@H](CO)NC(=O)[C@H](Cc1ccc(O)cc1)NC(=O)[C@H](CC(=O)O)NC(=O)[C@H](CO)NC(=O)[C@@H](NC(=O)[C@H](Cc1ccccc1)NC(=O)[C@@H](NC(=O)CNC(=O)[C@H](CCC(N)=O)NC(=O)C(C)(C)NC(=O)[C@@H](N)Cc1ccc(O)cc1)[C@@H](C)O)[C@@H](C)O)C(C)C)C(=O)N[C@@H](CO)C(=O)N[C@@H](C)C(N)=O
For the molecule B1, the “EC50 (cAMP induction)” value in experiment [1] turned out to be 0.2 nM; in experiment [2] it was 0.015 nM; in experiment [3] it was 0.042 nM; in experiment [4], 0.015 nM; in experiment [5] it was 0.042 nM; in experiment [6], 0.042 nM.

B2: Compound 10 (peptide)
peptide: YAQGTFTSDYSIYLDSKAAKDFVEWLLSA
HELM: PEPTIDE1{Y.[Aib].Q.G.T.F.T.S.D.Y.S.I.Y.L.D.S.K.A.A.K.D.F.V.E.W.L.L.S.A.[am]}$$$$V2.0
SMILES: CC[C@H](C)[C@H](NC(=O)[C@H](CO)NC(=O)[C@H](Cc1ccc(O)cc1)NC(=O)[C@H](CC(=O)O)NC(=O)[C@H](CO)NC(=O)[C@@H](NC(=O)[C@H](Cc1ccccc1)NC(=O)[C@@H](NC(=O)CNC(=O)[C@H](CCC(N)=O)NC(=O)C(C)(C)NC(=O)[C@@H](N)Cc1ccc(O)cc1)[C@@H](C)O)[C@@H](C)O)C(=O)N[C@@H](Cc1ccc(O)cc1)C(=O)N[C@@H](CC(C)C)C(=O)N[C@@H](CC(=O)O)C(=O)N[C@@H](CO)C(=O)N[C@@H](CCCCN)C(=O)N[C@@H](C)C(=O)N[C@@H](C)C(=O)N[C@@H](CCCCN)C(=O)N[C@@H](CC(=O)O)C(=O)N[C@@H](Cc1ccccc1)C(=O)N[C@H](C(=O)N[C@@H](CCC(=O)O)C(=O)N[C@@H](Cc1c[nH]c2ccccc12)C(=O)N[C@@H](CC(C)C)C(=O)N[C@@H](CC(C)C)C(=O)N[C@@H](CO)C(=O)N[C@@H](C)C(N)=O)C(C)C
Turning to B2, the “EC50 (cAMP induction)” value was 0.24 nM in experiment [1]; 0.012 nM in experiment [2]; 0.1 nM in experiment [3]; 0.012 nM in experiment [4]; 0.1 nM in experiment [5]; 0.1 nM in experiment [6].

B3: Compound 9 (peptide)
peptide: YAQGTFTSDYSIYLDEKAAHDFVEWLLSA
HELM: PEPTIDE1{Y.[Aib].Q.G.T.F.T.S.D.Y.S.I.Y.L.D.E.K.A.A.H.D.F.V.E.W.L.L.S.A.[am]}$$$$V2.0
SMILES: CC[C@H](C)[C@H](NC(=O)[C@H](CO)NC(=O)[C@H](Cc1ccc(O)cc1)NC(=O)[C@H](CC(=O)O)NC(=O)[C@H](CO)NC(=O)[C@@H](NC(=O)[C@H](Cc1ccccc1)NC(=O)[C@@H](NC(=O)CNC(=O)[C@H](CCC(N)=O)NC(=O)C(C)(C)NC(=O)[C@@H](N)Cc1ccc(O)cc1)[C@@H](C)O)[C@@H](C)O)C(=O)N[C@@H](Cc1ccc(O)cc1)C(=O)N[C@@H](CC(C)C)C(=O)N[C@@H](CC(=O)O)C(=O)N[C@@H](CCC(=O)O)C(=O)N[C@@H](CCCCN)C(=O)N[C@@H](C)C(=O)N[C@@H](C)C(=O)N[C@@H](Cc1c[nH]cn1)C(=O)N[C@@H](CC(=O)O)C(=O)N[C@@H](Cc1ccccc1)C(=O)N[C@H](C(=O)N[C@@H](CCC(=O)O)C(=O)N[C@@H](Cc1c[nH]c2ccccc12)C(=O)N[C@@H](CC(C)C)C(=O)N[C@@H](CC(C)C)C(=O)N[C@@H](CO)C(=O)N[C@@H](C)C(N)=O)C(C)C
Take B3: the “EC50 (cAMP induction)” value worked out at 0.056 nM in experiment [1]; 0.0055 nM in experiment [2]; 0.097 nM in experiment [3]; 0.006 nM in experiment [4]; 0.097 nM in experiment [5]; 0.097 nM in experiment [6].

B4: Compound 11 (peptide)
peptide: YAQGTFTSDYSIYLDSKAAHDFVNWLLSA
HELM: PEPTIDE1{Y.[Aib].Q.G.T.F.T.S.D.Y.S.I.Y.L.D.S.K.A.A.H.D.F.V.N.W.L.L.S.A.[am]}$$$$V2.0
SMILES: CC[C@H](C)[C@H](NC(=O)[C@H](CO)NC(=O)[C@H](Cc1ccc(O)cc1)NC(=O)[C@H](CC(=O)O)NC(=O)[C@H](CO)NC(=O)[C@@H](NC(=O)[C@H](Cc1ccccc1)NC(=O)[C@@H](NC(=O)CNC(=O)[C@H](CCC(N)=O)NC(=O)C(C)(C)NC(=O)[C@@H](N)Cc1ccc(O)cc1)[C@@H](C)O)[C@@H](C)O)C(=O)N[C@@H](Cc1ccc(O)cc1)C(=O)N[C@@H](CC(C)C)C(=O)N[C@@H](CC(=O)O)C(=O)N[C@@H](CO)C(=O)N[C@@H](CCCCN)C(=O)N[C@@H](C)C(=O)N[C@@H](C)C(=O)N[C@@H](Cc1c[nH]cn1)C(=O)N[C@@H](CC(=O)O)C(=O)N[C@@H](Cc1ccccc1)C(=O)N[C@H](C(=O)N[C@@H](CC(N)=O)C(=O)N[C@@H](Cc1c[nH]c2ccccc12)C(=O)N[C@@H](CC(C)C)C(=O)N[C@@H](CC(C)C)C(=O)N[C@@H](CO)C(=O)N[C@@H](C)C(N)=O)C(C)C
For B4, the “EC50 (cAMP induction)” value turned out to be 0.28 nM in experiment [1]; 0.02 nM in experiment [2]; 0.11 nM in experiment [3]; 0.02 nM in experiment [4]; 0.11 nM in experiment [5]; 0.11 nM in experiment [6].

B5: Compound 7 (peptide)
peptide: YAQGTFTSDYSKALDSKAAHDFVEWLLSA
HELM: PEPTIDE1{Y.[Aib].Q.G.T.F.T.S.D.Y.S.K.A.L.D.S.K.A.A.H.D.F.V.E.W.L.L.S.A.[am]}$$$$V2.0
SMILES: CC(C)C[C@H](NC(=O)[C@H](C)NC(=O)[C@H](CCCCN)NC(=O)[C@H](CO)NC(=O)[C@H](Cc1ccc(O)cc1)NC(=O)[C@H](CC(=O)O)NC(=O)[C@H](CO)NC(=O)[C@@H](NC(=O)[C@H](Cc1ccccc1)NC(=O)[C@@H](NC(=O)CNC(=O)[C@H](CCC(N)=O)NC(=O)C(C)(C)NC(=O)[C@@H](N)Cc1ccc(O)cc1)[C@@H](C)O)[C@@H](C)O)C(=O)N[C@@H](CC(=O)O)C(=O)N[C@@H](CO)C(=O)N[C@@H](CCCCN)C(=O)N[C@@H](C)C(=O)N[C@@H](C)C(=O)N[C@@H](Cc1c[nH]cn1)C(=O)N[C@@H](CC(=O)O)C(=O)N[C@@H](Cc1ccccc1)C(=O)N[C@H](C(=O)N[C@@H](CCC(=O)O)C(=O)N[C@@H](Cc1c[nH]c2ccccc12)C(=O)N[C@@H](CC(C)C)C(=O)N[C@@H](CC(C)C)C(=O)N[C@@H](CO)C(=O)N[C@@H](C)C(N)=O)C(C)C
Take B5: the “EC50 (cAMP induction)” value in experiment [1] turned out to be 0.42 nM; in experiment [2], 0.031 nM; in experiment [3], 0.086 nM; in experiment [4] it was 0.031 nM; in experiment [5], 0.086 nM; in experiment [6], 0.086 nM.

B6: Compound 6 (peptide)
peptide: YAQGTFTSDYSKYLDSKAARDFVEWLLSA
HELM: PEPTIDE1{Y.[Aib].Q.G.T.F.T.S.D.Y.S.K.Y.L.D.S.K.A.A.R.D.F.V.E.W.L.L.S.A.[am]}$$$$V2.0
SMILES: CC(C)C[C@H](NC(=O)[C@H](CC(C)C)NC(=O)[C@H](Cc1c[nH]c2ccccc12)NC(=O)[C@H](CCC(=O)O)NC(=O)[C@@H](NC(=O)[C@H](Cc1ccccc1)NC(=O)[C@H](CC(=O)O)NC(=O)[C@H](CCCNC(=N)N)NC(=O)[C@H](C)NC(=O)[C@H](C)NC(=O)[C@H](CCCCN)NC(=O)[C@H](CO)NC(=O)[C@H](CC(=O)O)NC(=O)[C@H](CC(C)C)NC(=O)[C@H](Cc1ccc(O)cc1)NC(=O)[C@H](CCCCN)NC(=O)[C@H](CO)NC(=O)[C@H](Cc1ccc(O)cc1)NC(=O)[C@H](CC(=O)O)NC(=O)[C@H](CO)NC(=O)[C@@H](NC(=O)[C@H](Cc1ccccc1)NC(=O)[C@@H](NC(=O)CNC(=O)[C@H](CCC(N)=O)NC(=O)C(C)(C)NC(=O)[C@@H](N)Cc1ccc(O)cc1)[C@@H](C)O)[C@@H](C)O)C(C)C)C(=O)N[C@@H](CO)C(=O)N[C@@H](C)C(N)=O
As for B6, the “EC50 (cAMP induction)” value in experiment [1] came out at 0.34 nM; in experiment [2], 0.0095 nM; in experiment [3] it was 0.018 nM; in experiment [4] it was 0.01 nM; in experiment [5], 0.018 nM; in experiment [6] it was 0.018 nM.
